From article PMC3155264 (Cell, 2011)

B1: MinE^21-88 (domain or fragment, E. coli, UniProt P0A734 21-88, looked up)
chain: RLQIIVAERRRSDAEPHYLPQLRKDILEVICKYVQIDPEMVTVQLEQKDGDISILELNVTLPEAEELK
B2: MinE^I24N*-h (domain or fragment, E. coli, UniProt P0A734 12-88, looked up)
chain: KNTANIAKERLQNIVAERRRSDAEPHYLPQLRKDILEVICKYVQIDPEMVTVQLEQKDGDISILELNVTLPEAEELK

Key:
SEC = target: the molecule itself; experiment: SEC
crystal structure = target: the molecule itself; experiment: crystal structure

Protein | binding result (SEC) | binding result (crystal structure)
B1 | binds | –
B2 | – | binds
